Assay [1] concerns the target C-terminal domain (CTD) of BMJ4 p24 (HIV-1 strain BMJ4 (subtype C)). In words: non-reducing SDS-PAGE; C-terminal domain of BMJ4 p24 in non-reducing condition.
The target in assay [2] is p24 of HIV-1 MJ4 virus (from the infectious clone) (HIV-1 strain BMJ4 (subtype C)). As to the kind of experiment: non-reducing SDS-PAGE.
The target in assay [3] is HIV-1 p24 capsid protein from the BMJ4 strain (recombinant, full-length) (HIV-1 strain BMJ4 (subtype C)). As to the kind of experiment: SEC; analytic gel filtration, G5000PWxl column in phosphate-buffered saline pH 7.4, 0.5 ml/min, Agilent1200 HPLC. In general terms: In gel filtration, larger molecules generally elute earlier.
For assay [4] the target is unchanged. In words: non-reducing SDS-PAGE; recombinant p24 proteins; loading buffer with 0.1% SDS, no BME, sample not boiled; called native gel in the text.
For assay [5] the target is unchanged. As to the kind of experiment: AUC; sedimentation velocity, 0.9 mg/ml in phosphate-buffered saline pH 7.4, 20°C, 45,000 rpm; c(s) scaled to c(M).
For assay [6] the target is unchanged. As to the kind of experiment: crystal structure.

For orientation: stoichiometry N means a count of units in the complex or per binding partner. As for “C-terminal domain (CTD) of BMJ4 p24 (domain or fragment)”, in assay [1], the stoichiometry N came out at 2.

In turn, “p24 of HIV-1 MJ4 virus (from the infectious clone) (natural protein)” had a stoichiometry N in assay [2] of 2.

Take “HIV-1 p24 capsid protein from the BMJ4 strain (recombinant, full-length) (natural protein)”: the stoichiometry N in assay [3], in assay [4], in assay [5] and in assay [6] was 2 each time.

(Values after paper PMC3631186.)
